The target of test [1] is T1, B-Raf kinase, P15056.
T1 chain: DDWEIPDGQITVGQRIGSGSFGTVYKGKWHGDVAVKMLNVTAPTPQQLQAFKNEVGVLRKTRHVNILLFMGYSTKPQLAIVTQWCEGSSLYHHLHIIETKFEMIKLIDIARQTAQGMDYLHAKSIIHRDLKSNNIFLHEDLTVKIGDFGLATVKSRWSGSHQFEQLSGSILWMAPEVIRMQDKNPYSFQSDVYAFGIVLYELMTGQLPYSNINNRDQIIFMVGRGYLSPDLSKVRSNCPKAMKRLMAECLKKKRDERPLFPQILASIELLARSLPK
Nature of the test: isothermal titration calorimetry. In general terms: ITC needs no label: the signal is the heat of the interaction.

The target of test [2] is T1, B-Raf kinase, P15056. Nature of the test: intrinsic fluorescence titration, column head Kd (ITF) (µM).

In test [1], GVLRKARHVNILLFMGYST (modifications not checked) [Peptide corresponding to SEQ ID NO: 8] came in with a ΔS of -28.4 J/mol·K.

Usually Kd stands for the concentration at which binding is half-saturated. Higher therefore signals a looser complex. Molecule LRKTRHVNI (modifications not checked) [6257] returned a Kd in test [2] of 20 nM.

The record behind these values is US20190382738A1.
